Reference: patent publication US20220119534A1 (DRAGONFLY THERAPEUTICS, published 2022)
Numbering of substitutions follows the chain as printed.

Assays:
Human CLEC12A-His [1] = molecular target: T1, Human CLEC12A-His (human, UniProt Q5QGZ9 65-265); assay: SPR Biacore 8K 37 C; TriNKET captured on anti-hFc chip, hCLEC12A-His as analyte; two-state fit, kd1; two-state fit; kd1
T1 construct: Recombinant soluble protein made in house (Dragonfly Tx); The hCLEC12A spot of the HuProt array is written under this molecule as well; also called hCLEC12A-His; hCLEC12A; not shown: His tag
T1 sequence: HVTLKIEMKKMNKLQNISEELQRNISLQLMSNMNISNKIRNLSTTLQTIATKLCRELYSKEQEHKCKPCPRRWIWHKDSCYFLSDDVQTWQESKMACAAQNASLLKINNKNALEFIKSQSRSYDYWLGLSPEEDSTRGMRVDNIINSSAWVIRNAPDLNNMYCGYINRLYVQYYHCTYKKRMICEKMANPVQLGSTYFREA

Human CLEC12A-His [2] = molecular target: T1, Human CLEC12A-His; assay: cell-based or functional assay
Human CLEC12A-His [3] = molecular target: T1, Human CLEC12A-His; assay: SPR Biacore 8K 37 C; TriNKET captured on anti-hFc chip, hCLEC12A-His as analyte; two-state fit; two-state fit
Human CLEC12A-His [4] = molecular target: T1, Human CLEC12A-His; assay: SPR Biacore 8K 37 C; TriNKET captured on anti-hFc chip, hCLEC12A-His as analyte; two-state fit, ka1 only; two-state fit; ka1 only
Human CLEC12A-His [5] = molecular target: T1, Human CLEC12A-His; assay: SPR Biacore 8K 37 C; TriNKET captured on anti-hFc chip, hCLEC12A-His as analyte; two-state fit, kd2
[6] = molecular target: T2, recombinant human CLEC12A-His (human, UniProt Q5QGZ9 65-265); assay: SPR screening, semi-purified
T2 construct: also called hCLEC12A-His; hCLEC12A
T2 sequence: T1 sequence

[7] = molecular target: T3, human CLEC12A expressed on cells (human, UniProt Q5QGZ9 1-265); assay: flow cytometry, HL60
T3 construct: Transduced isogenic cells or endogenous expression on AML cells; also called RMA-hCLEC12A; Ba/F3-hCLEC12A
T3 sequence: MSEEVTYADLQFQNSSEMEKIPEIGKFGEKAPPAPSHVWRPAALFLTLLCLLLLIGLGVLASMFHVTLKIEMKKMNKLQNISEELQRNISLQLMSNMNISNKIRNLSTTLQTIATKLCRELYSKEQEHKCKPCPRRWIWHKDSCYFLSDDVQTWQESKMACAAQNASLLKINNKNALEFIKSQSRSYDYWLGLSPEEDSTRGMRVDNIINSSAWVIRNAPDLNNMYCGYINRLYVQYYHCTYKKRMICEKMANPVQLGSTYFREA

[8] = molecular target: T2, recombinant human CLEC12A-His; assay: SPR
[9] = molecular target: T3, human CLEC12A expressed on cells; assay: flow cytometry, hCLEC12A+ Ba/F3
[10] = molecular target: T3, human CLEC12A expressed on cells; assay: flow cytometry (MFI) on CLEC12A+ PL21 AML cells, about 0.04 to 27 nM, plateau about 1150 MFI; the molecule is assigned by panel order and legend paragraph 296
[11] = molecular target: T3, human CLEC12A expressed on cells; assay: flow cytometry on HL-60 cells, fold over background
Protocol: The cells were then incubated with a fluorophore conjugated anti-human IgG secondary antibody and were analyzed by flow cytometry. The mean fluorescence intensity (MFI) values were normalized to secondary antibody only controls to obtain fold over background (FOB) values.
100,000 cells were seeded per well into a 96-well plate for FACS staining. Cells were washed with PBS. Cells were incubated in a 1:2000 dilution of live/dead dye in PBS for 15 minutes, then washed with FACS buffer. TriNKETs or mAbs were diluted into FACS buffer, and 50 μl containing diluted TriNKET or mAb was added to cells. Cells were incubated on ice for 20 minutes. After the incubation, cells were washed with FACS buffer. Anti-human IgG-Fc secondary antibody was diluted into FACS buffer, and 50 μl was added per well for detection of the bound TriNKETs or mAbs. Cells were incubated for 20 minutes on ice, then washed with FACS buffer. 50 μl of fixation buffer was added to each well, and cells were incubated for 10 minutes at room temperature. Cells were washed with FACS buffer and resuspended in FACS buffer for analysis with BD FACS Celesta SN #H66034400085, or BD FACS Celesta SN #H66034400160. Cells of interest were identified using FSC vs. SSC plot, and an appropriately shaped gate was drawn around the cells. Within the gated cells, doublet cells were removed by viewing FSC-H vs FSC-A plot. Within the single cell population, live cells were gated. Within the live gate, the mean fluorescence intensity (MFI) of each sample and the secondary-only control was calculated. Fold-over-background (FOB) was calculated as the ratio of test article MFI over secondary-only background MFI. Data were fit to a four-parameter non-linear regression curve using GraphPad Prism 7.0.

[12] = molecular target: T4, recombinant cynomolgus CLEC12A-His (cynomolgus monkey, UniProt A0A2K5WXQ4 71-271); assay: SPR 37C
T4 construct: also called cCLEC12A-His; cCLEC12A
T4 sequence: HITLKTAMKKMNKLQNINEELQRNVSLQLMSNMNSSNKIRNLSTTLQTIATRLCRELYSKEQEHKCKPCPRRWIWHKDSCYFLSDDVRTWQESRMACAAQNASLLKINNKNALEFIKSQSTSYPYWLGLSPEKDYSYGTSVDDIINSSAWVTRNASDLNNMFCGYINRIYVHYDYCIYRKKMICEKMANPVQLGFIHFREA

[13] = molecular target: T2, recombinant human CLEC12A-His; assay: SPR; sensorgrams of a CLEC12A concentration series with fit overlays (response up to about 28, time axis 0 to about 900)
[14] = molecular target: T5, recombinant human CD16a V158 (human, UniProt P08637 17-208, biotinylated); assay: SPR
T5 construct: also called FcγRIIIa V158; hCD16aV
T5 sequence (P08637 17-208 F176V limits assumed): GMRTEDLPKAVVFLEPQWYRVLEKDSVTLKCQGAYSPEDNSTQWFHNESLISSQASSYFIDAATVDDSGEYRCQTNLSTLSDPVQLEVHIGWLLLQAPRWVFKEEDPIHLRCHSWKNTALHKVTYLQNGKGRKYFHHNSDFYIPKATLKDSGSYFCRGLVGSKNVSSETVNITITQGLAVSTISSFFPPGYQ

human CLEC12A-K244Q-His = molecular target: T6, human CLEC12A-K244Q-His (human, UniProt Q5QGZ9 65-265); assay: SPR
T6 construct: Polymorphic variant; also called hCLEC12A-K244Q; CLEC12A (Q244)
T6 chain: T1 sequence with K180Q

B1: AB0053 (bispecific antibody)
chain 1: QLQLQESGPGLVKPSETLSLTCTVSGFSLTNYGLHWIRQPPGKCLEWIGVIWSGGKTDYNPSLKSRVTISKDTSKNQFSLKLSSVQAADTAVYYCAKYDYDDALDYWGQGTLVTVSSGGGGSGGGGSGGGGSGGGGSDIQMTQSPSSLSASVGDRVTITCHASQNINFWLSWYQQKPGKAPKLLIYEASNLHTGVPSRFSGSGSGTRFTLTISSLQPEDIATYYCQQSHSYPLTFGCGTKLEIKGSDKTHTCPPCPAPELLGGPSVFLFPPKPKDTLMISRTPEVTCVVVDVSHEDPEVKFNWYVDGVEVHNAKTKPREEQYNSTYRVVSVLTVLHQDWLNGKEYKCKVSNKALPAPIEKTISKAKGQPREPRVYTLPPCRDELTKNQVSLTCLVKGFYPSDIAVEWESNGQPENNYKTTPPVLVSDGSFTLYSKLTVDKSRWQQGNVFSCSVMHEALHNHYTQKSLSLSPG
chain 2: EVQLVESGGGLVKPGGSLRLSCAASGFTFSSYSMNWVRQAPGKGLEWVSSISSSSSYIYYADSVKGRFTISRDNAKNSLYLQMNSLRAEDTAVYYCARGAPIGAAAGWFDPWGQGTLVTVSSASTKGPSVFPLAPSSKSTSGGTAALGCLVKDYFPEPVTVSWNSGALTSGVHTFPAVLQSSGLYSLSSVVTVPSSSLGTQTYICNVNHKPSNTKVDKKVEPKSCDKTHTCPPCPAPELLGGPSVFLFPPKPKDTLMISRTPEVTCVVVDVSHEDPEVKFNWYVDGVEVHNAKTKPREEQYNSTYRVVSVLTVLHQDWLNGKEYKCKVSNKALPAPIEKTISKAKGQPREPQVCTLPPSRDELTENQVSLTCLVKGFYPSDIAVEWESNGQPENNYKTTPPVLDSDGSFFLYSWLTVDKSRWQQGNVFSCSVMHEALHNHYTQKSLSLSPG
chain 3: DIQMTQSPSSVSASVGDRVTITCRASQGISSWLAWYQQKPGKAPKLLIYAASSLQSGVPSRFSGSGSGTDFTLTISSLQPEDFATYYCQQGVSFPRTFGGGTKVEIKRTVAAPSVFIFPPSDEQLKSGTASVVCLLNNFYPREAKVQWKVDNALQSGNSQESVTEQDSKDSTYSLSSTLTLSKADYEKHKVYACEVTHQGLSSPVTKSFNRGEC
With B1 the koff (Human CLEC12A-His [1]) was 0.0157 s⁻¹, the “EC50 (nM), KHYG-1-CD16aV cytotoxicity assay, PL-21 cells” value (Human CLEC12A-His [2]) was 0.39 nM and the Kd (Human CLEC12A-His [3]) was 2.41 nM. It also gave a kon (Human CLEC12A-His [4]) of 1.63e+06 M⁻¹ s⁻¹ and a koff (Human CLEC12A-His [5]) of 0.000949 s⁻¹.

B2: AB0192 TriNKET (other)
chain: EVQLVESGGGVVQPGGSLRLSCAASGFTFNAFGMHWVRQAPGKCLEWVAFISSGSTSIYYANTVKGRFTISRDNSKNTLYLQMNSLRAEDTAVYYCARDGYPTGGAMDYWGQGTSVTVSSGGGGSGGGGSGGGGSGGGGSDIQMTQSPSSLSASVGDRVTITCKASQDIYNYLSWFQQKPGKAPKPLIYRANILVSGVPSRFSGSGSGQDYTFTISSLQPEDIATYYCLQFDAFPFTFGCGTKLEIKGSDKTHTCPPCPAPELLGGPSVFLFPPKPKDTLMISRTPEVTCVVVDVSHEDPEVKFNWYVDGVEVHNAKTKPREEQYNSTYRVVSVLTVLHQDWLNGKEYKCKVSNKALPAPIEKTISKAKGQPREPRVYTLPPCRDELTKNQVSLTCLVKGFYPSDIAVEWESNGQPENNYKTTPPVLVSDGSFTLYSKLTVDKSRWQQGNVFSCSVMHEALHNHYTQKSLSLSPG
heavy: B1 chain 2
light: B1 chain 3
notes: Humanized 9F11.B7 scFv-Fc, A49MI Fab-Fc
B2 gave a Kd [6] of 1.26 nM, a koff [6] of 0.00138 s⁻¹ and a kon [6] of 1.09e+06 M⁻¹ s⁻¹. For the same binder, the EC50 [7] was 0.6 nM, the “Max binding MFI” value [7] was 503 MFI and the Kd [8] was 1.2 nM. The EC50 [9] was 0.7 nM, the “Max binding MFI” value [9] was 10200 MFI and the EC50 [10] was 0.27 nM. The “EC50 (read off the curve)” value [11] was about 1 nM, the binding result [12] was “no binding (tested: 100 nM)” and the Kd [13] was 1.66 nM. For the same binder, the “fold difference in affinity vs trastuzumab” value [14] was about 2 fold and the “fold difference in affinity vs CLEC12A WT” value (human CLEC12A-K244Q-His) was at most 2.5 fold.
